As a reminder, the stoichiometry N is a count of units in the complex or per binding partner.

We go through seven molecules from paper PMC9734150, “Allosteric rescue of catalytically impaired ATP phosphoribosyltransferase variants links protein dynamics to active-site electrostatic preorganisation” (Nature Communications, 2022).

To fix the notation:
T1: WT-PaHisGS (Psychrobacter arcticus ATP phosphoribosyltransferase catalytic subunit HisGS) (Psychrobacter arcticus, UniProt Q4FQF7 1-231)
T1 chain: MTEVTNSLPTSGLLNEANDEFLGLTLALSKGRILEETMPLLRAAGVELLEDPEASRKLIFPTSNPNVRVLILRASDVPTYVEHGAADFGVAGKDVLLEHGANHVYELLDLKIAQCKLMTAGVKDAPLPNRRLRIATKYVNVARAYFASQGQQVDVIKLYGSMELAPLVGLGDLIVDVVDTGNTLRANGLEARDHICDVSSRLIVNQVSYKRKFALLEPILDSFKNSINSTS

T2: R32A-PaHisGS (Psychrobacter arcticus, UniProt Q4FQF7 1-231, R32A)
T2 sequence: T1 chain with R32A

T3: R56A-PaHisGS (Psychrobacter arcticus, UniProt Q4FQF7 1-231, R56A)
T3 sequence: T1 chain with R56A

T4: R56K-PaHisGS (Psychrobacter arcticus, UniProt Q4FQF7 1-231, R56K)
T4 sequence: T1 chain with R56K

B1: PaHisZ (Psychrobacter arcticus ATP phosphoribosyltransferase regulatory protein HisZ) (natural protein)
chain: MLPDGVADVLFEDAHKQEVLRHQLTQQLITHGYQLVSPPMIEFTESLLSGASEDLKRQTFKIIDQLTGRLMGIRADITPQILRIDAHHGGDGIARYCYAGDVIHTLPSGLFGSRTPLQLGAEIFGCESIAADIELIDVLFSMINSLDMSAVLHVDLGHVTIFKRLAELAALSASDTEQLMQLYANKNLPELKQVCQVLPMGSDFYTLARFGHDIANLLGRLSENAQQDTKIVTAIDELQRLKAHLQVQWQCAVSIDVTELSGYHYHTGIVFNGYINSETQPLVRGGRFDGMKSNQLATNQPRQATGFSMDVSRLLAHTQLDAPFIVLIDYDAFNNLDSAQRQLLLQQVASLRQQGYRVTMPLTAEDMPVGLTHRLSLADNQWRLHAV
notes: HisZ, regulatory subunit of short-form ATP phosphoribosyltransferase, Psychrobacter arcticus; also called WT-PaHisZ
B2: R56A-PaHisGS (enzyme, Psychrobacter arcticus)
chain: T1 chain with R56A
notes: HisGS, Psychrobacter arcticus, with R56A; made from the WT-PaHisGS expression vector
B3: C115S-PaHisGS (enzyme, Psychrobacter arcticus)
chain: T1 chain with C115S
notes: HisGS, Psychrobacter arcticus, with C115S; made from the WT-PaHisGS expression vector
B4: R56A/K57A-PaHisGS (enzyme, Psychrobacter arcticus)
chain: T1 chain with R56A, K57A
notes: HisGS, Psychrobacter arcticus, with R56A and K57A; made from the WT-PaHisGS expression vector
B5: WT-PaHisGS (Psychrobacter arcticus ATP phosphoribosyltransferase catalytic subunit HisGS) (enzyme)
chain: T1 chain
notes: HisGS, catalytic subunit of short-form ATP phosphoribosyltransferase, Psychrobacter arcticus
B6: R32A-PaHisGS (enzyme, Psychrobacter arcticus)
chain: T1 chain with R32A
notes: HisGS, Psychrobacter arcticus, with R32A; made from the WT-PaHisGS expression vector

In series [1] the target is WT-PaHisGS (Psychrobacter arcticus ATP phosphoribosyltransferase catalytic subunit HisGS) (Psychrobacter arcticus) (UniProt Q4FQF7). The series is described as follows: enzyme activity titration (initial rate against HisZ concentration); apparent KD; fixed PaHisGS variant, HisZ (PaHisZ, His-tagged PaHisZ or AbHisZ) varied; initial velocities at 20 °C in 100 mM tricine, 100 mM KCl, 15 mM MgCl2, 4 mM DTT, pH 8.5, 5.6 mM ATP, 2 mM PRPP; fit to Eq. (3), or to Eq. (5) for R56A-PaHisGS with AbHisZ.

For series [2], the target named is R56A-PaHisGS (Psychrobacter arcticus) (UniProt Q4FQF7).
Series [3] has as its target WT-PaHisGS (Psychrobacter arcticus ATP phosphoribosyltransferase catalytic subunit HisGS) (Psychrobacter arcticus) (UniProt Q4FQF7).
Series [4] deals with T1, WT-PaHisGS (Psychrobacter arcticus ATP …).
Series [5] addresses T2, R32A-PaHisGS.
Series [6] deals with T3, R56A-PaHisGS.
The target of series [7] is B2. The series is described as follows: cell-based or functional assay.
In the series “C115S-PaHisGS” the target is B3. The series is described as follows: cell-based or functional assay.
The series “R56A/K57A-PaHisGS” has as its target B4. The series is described as follows: cell-based or functional assay.
The target in series [8] is B5. As to the kind of experiment: cell-based or functional assay.
The target in series [9] is B6. As to the kind of experiment: cell-based or functional assay.
Series [10] concerns the molecule itself. The series is described as follows: crystal structure; R56A-PaATPPRT (R56A-PaHisGS with PaHisZ) crystals soaked in PRPP and ATP; molecular replacement with PDB 6FU2.
For another series, the target named is T4, R56K-PaHisGS. As to the kind of experiment: cell-based or functional assay.
Series [11] concerns the target B1. As to the kind of experiment: enzyme activity titration (initial rate against HisZ concentration); apparent KD; fixed PaHisGS variant, HisZ (PaHisZ, His-tagged PaHisZ or AbHisZ) varied; initial velocities at 20 °C in 100 mM tricine, 100 mM KCl, 15 mM MgCl2, 4 mM DTT, pH 8.5, 5.6 mM ATP, 2 mM PRPP; fit to Eq. (3), or to Eq. (5) for R56A-PaHisGS with AbHisZ. The conditions noted are these: both partners purified.

Series [12] concerns the molecule itself. As to the kind of experiment: SEC; Superdex 200 10/300 GL, 4 °C, 20 mM HEPES pH 8.0; 1 mg/mL protein pre-incubated with 2 mM DTT. (In general: In gel filtration, larger molecules generally elute earlier.)
Series [13] deals with AbHisZ (Acinetobacter baumannii HisZ). The series is described as follows: enzyme activity titration (initial rate against HisZ concentration); apparent KD; fixed PaHisGS variant, HisZ (PaHisZ, His-tagged PaHisZ or AbHisZ) varied; initial velocities at 20 °C in 100 mM tricine, 100 mM KCl, 15 mM MgCl2, 4 mM DTT, pH 8.5, 5.6 mM ATP, 2 mM PRPP; fit to Eq. (3), or to …. The conditions noted are these: other: enzyme activity titration (initial rate against HisZ concentration).

Residue numbers refer to the chain shown, from its start. Names may count otherwise.

In the case of “AbHisZ (Acinetobacter baumannii HisZ) (natural protein)”, the Kd in series [1] is 9000 nM. Moreover, the apparent kcat of the R56A-PaHisGS/AbHisZ hybrid complex in [2] is 0.22 s⁻¹. In addition, the apparent kcat of the WT-PaHisGS/AbHisZ hybrid complex in [3] came to 1.49 s⁻¹.

Regarding B1, the Kd in series [4] stood at 60 nM; with R32A-PaHisGS [5], 30 nM; with R56A-PaHisGS [6], 200 nM. Also, the “Activation by PaHisZ: ratio of kcat of PaATPPRT variant to v/ET of the PaHisGS mutant alone” value in the series with R56A-PaHisGS [7] stood at 250 fold; in the series with C115S-PaHisGS, 1860 fold; with R56A/K57A-PaHisGS, 521 fold; with R32A-PaHisGS [9], 208 fold. Moreover, the “Activation by PaHisZ: ratio of kcat of PaATPPRT to v/ET of PaHisGS alone” value in [8] amounted to 29 fold. Further, the binding result in series [10] is reported as “binds”. For the same molecule, in the series with R56K-PaHisGS, the “activation of the R56K-PaHisGS (6 µM) reaction rate by PaHisZ (20 µM)” value was about 11 fold.

With B2, the Kd in series [11] is 4000 nM. Moreover, the “stoichiometry N” value in series [12] was determined as 2. In addition, in [13], the “K0.5 (concentration of AbHisZ at the inflection point, Eq. 5)” value was found to be 8.1 ± 0.4 µM.

On to B3, for which, in series [11], the Kd was determined as 1700 nM. Also, the “stoichiometry N” value in series [12] was found to be 2.

Turning to B4, the Kd in series [11] turned out to be 5000 nM. Besides, the “stoichiometry N” value in series [12] came out at 2.

In the case of B5, the Kd in series [11] is 440 nM. In addition, the “stoichiometry N” value in [12] is 2.

As for B6, the Kd in series [11] turned out to be 490 nM. For the same molecule, the “stoichiometry N” value in [12] was 2.
